± gives the uncertainty stated by the source.
Assay: amyloid nucleation score (Sup35N fusion, yeast selection) (log enrichment); library NNK3; higher = more nucleation; inactive = no reads after selection
Procedure, shortened: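 After 24 hours of induction with 100 μM copper sulfate, psi-negative yeast expressing peptides of 20 random codons fused to Sup35N were grown for 7 days at 30°C on medium lacking adenine and uracil. Input and output plasmid inserts were sequenced with Illumina, and sequences with under 100 input reads were discarded. Scores for nucleation are the DiMSum log enrichment of output over input reads, centred on the mode score of non-aggregating sequences.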

Substance	amyloid nucleation score
MGVSWIII	inactive
ILADSCGV	inactive
KLLFLSYTYWWKSHFWRFRT	inactive
LVRKAAVPN	inactive
VENGCGAT	inactive
SIIDKCATTLTDVSGNQLGV	inactive
PRNFFLRVMHY	inactive
AYCVFHSIYGV	inactive
SALLQAIF	inactive
ECENMHDTKDLGLTDGVYII	inactive
GTKWSATITGWV	inactive
HPGFTWY	inactive
CLLNGDLHVEGWTLV	inactive
TALGSDMTYITARRI	0.671 ± 0.15
MGKVARRA	inactive
FLLFFAKWCLY	inactive
YTLGHRTPMLIYDVAGRPNY	inactive
MRASCCKCVHICTYMSDRFD	0.743 ± 0.22
ECRYRTRR	inactive
GSRLAGLVVYDFSLSQWYFS	2.84 ± 0.079
LGMGSSDYRGRYRSNS	inactive

Substance	amyloid nucleation score
YVQIGFILIFISNYLSCESA	1.8 ± 0.071
LHEVLF	inactive
ILVFR	inactive
HFCPVRKGGAGIRYFYCSCW	1.7 ± 0.12
YFLYMCALTHRWFWFKFFER	inactive
SNQTWMVNET	inactive
GSSISRRDFNVAILFWWQGD	inactive
WCQDATMYNPSYY	inactive
MFCSIIKSQTVAFLVGSSFG	0.145 ± 0.26
YIWLKGNIRRSQWLLSLPFM	inactive
LCAFHKRNRQEVACVMFVKS	inactive
SDGDVMFLVKIEAGAFSGGM	inactive
VWMIPISCKSQFLFEWYGHY	1.12 ± 0.18
MYYMVTGRLVICRN	inactive
RTLNYFSHVCQSSINWSSLV	0.743 ± 0.16
LVIASGRVIVIVCYV	inactive
DCCGLVAYNLVFRICGACLG	inactive
TNRVIVSMRLYVMDLYYCRT	inactive
ARRGLPVARIIFSHDPNL	inactive
CFYIKKSKVGLGHWINHV	inactive
ASDGCSLRVAPVTQSPLWVS	inactive

Substance	amyloid nucleation score
IYIVTYICPVSSRLKGLLCQ	inactive
YLAPHMSATVVLDNEFGPES	inactive
CFCVDADIIRTLMVCDIILS	1.12 ± 0.099
EVYYPDVNLLEPGAVKLGRH	inactive
QLHTDYPFGACLFSCDGLDM	inactive
INQYRPAPIQEAPLF	inactive
GSFYCLYFVGDVIIILTCLR	inactive
FESSGAGRFRSIWYGYMRVF	inactive
GACYTFAA	inactive
VICRKLVMPFVESNRWHWSN	inactive
NGIVPLSHLFYIGDSVKWWG	inactive
PLNNGHLLSMPICKIRLVKA	inactive
LKLMKNDCRFSNGNLVVVRV	inactive
IGLSSHISWYE	inactive
IVYLDIDVFFMFLCVASRTE	1.59 ± 0.081
FLLNQIIGQLKHHLFVVSVN	inactive
HYCMRN	inactive
MRILKHMFQVDWLVNAMDAE	inactive
NSCYTASCS	-0.381 ± 0.63
LYGVNSCLIH	inactive
CFSYGMWNSLPRWLALN	inactive

Substance	amyloid nucleation score
RFEYMGNVMES	inactive
GSFGYNCVKFHSDGFQAGRG	inactive
RSCGVFHQRARVHCCIKSLP	inactive
HRTCITTNDDCLSRGTLP	inactive
NTGCSDNFESFCLKATVHWV	inactive
TCFESLGLDVPIPYNRWVRS	inactive
VVTNG	0.408 ± 0.17
VIYVKSIMSFSLCDFDY	3.11 ± 0.074
NYMTVRNGLIISIAPRRLRD	1.83 ± 0.085
RHSNMSRIPMVLNKEKPGTR	inactive
FCHLLVMLFYKGPKVFCIVM	inactive
LYSKCFGVRLHYVFSMSWSG	inactive
HYAASSLYLTATHGFICSMC	1.73 ± 0.073
VSSTALGGNNSICHLSPFYT	inactive
AAMHLDILNGTATRLSYSCA	inactive
RHVFFLC	inactive
LSECRKD	inactive
RIQCLCVDVLSVMLSVHA	1.48 ± 0.11

From the supplement of paper PMC12042874
